# Several values for one entry are separate records, joined by “and”; a condition that tells them apart may be missing. Equal entries are not always repeated.
# Columns and labels:
# [1] = target: Mtb PhoP, phosphorylated with acetyl phosphate (AcP) (Mycobacterium tuberculosis) (UniProt P71814); assay: cryo-EM structure
# [2] = target: Mtb PhoP, phosphorylated with acetyl phosphate (AcP) (Mycobacterium tuberculosis) (UniProt P71814); assay: […]
# [3] = target: Mtb PhoP, phosphorylated with acetyl phosphate (AcP) (Mycobacterium tuberculosis) (UniProt P71814); assay: […]; remark: listed apart in the source
substance,measurement,setting,value
"Mtb PhoP, phosphorylated with acetyl phosphate (AcP) (from UniProt P71814 1-247) (natural protein)",stoichiometry N,[1],2
same,stoichiometry N,[2],2
same,stoichiometry N,[3],6 and 4

# From publication doi:10.1101/2024.05.16.594476
